We go through 9 compounds from publication PMC6389896 (Communications Biology, 2019).

The target of series [1] is human esRAGE (Homo sapiens, UniProt Q15109). Nature of the series: Plate competition assay of oxytocin-RAGE complex formation by RAGE ligands and RAGE domains. The format is binding. As to conditions: esRAGE preincubated with ligand, added 30 min to wells with immobilised oxytocin, HRP-anti-RAGE, n = 3. On the procedure:
RAGE ligands were S100B (Sigma-Aldrich, St. Louis, MO, USA)[30], AGE-BSA (glyceraldehyde-derived AGE-BSA)[27],[32],[41], amyloid β 1-42 (Sigma-Aldrich), and high-mobility group box 1 (HMGB1, Sigma-Aldrich)[42].
Supplementary Figure 3. (a–d) Plate competition assays. Preincubation mixtures of esRAGE (1 mg/ml) with indicated concentrations of S100B (a),AGE-BSA (AGE) (b), amyloid b (c),or high-mobility group box 1 (HMGB1) (d) were added into wells for 30 min on which […]
The formation of oxytocin–RAGE complexes was detected with horseradish peroxidase (HRP)-conjugated anti-RAGE antibody (n = 3). All […]
and C2 domains (30 mg/ml) were used with this system (n = 3). The formation of oxytocin– RAGE complexes was detected with horseradish peroxidase (HRP)-conjugated anti-RAGE antibody (n = 3). *P < 0.05. Allgraphs show mean ± SEM.
(1 picture or pasted object on this page, not shown here)

A short description of series [2]: [13C,15N]oxytocin in CSF after subcutaneous injection, LC-MS/MS. The format is in vivo, mouse. On the procedure: (§1) High MW proteins in diluted mouse plasma were precipitated with 2% TCA; supernatants obtained after centrifugation were analysed by LC-MS/MS. Mouse CSF samples diluted 1:5 with PBS (25 μl) were analysed directly. […] The eluting 1.0 ml fractions (Fig. 1h) were analysed by LC-MS/MS. The 25 μl samples were separated using a ZORBAX 300SB-C8 column (2.1 × 150 mm, 5 μm; CA, USA) eluted with a linear gradient of 0.1% (v/v) formic acid and acetonitrile (0–30%) at 0.3 ml/min and 50 °C.

Series [3] deals with human endogenous soluble RAGE (esRAGE), recombinant (human). Nature of the series: SPR; human esRAGE amine-coupled to a CM5 chip (~5000 RU), oxytocin flowed over; BIAcore 2000; 10 mM HEPES pH 7.4, 0.15 M NaCl, 3 mM EDTA, 0.005% surfactant P-20; 25 °C, 20 μl/min; apparent KD. A general note: Surface plasmon resonance follows binding to a sensor surface in real time, without labels.

Series [4] addresses oxytocin receptor (high affinity form) (UniProt P30559). Conditions: cited from earlier work.
Series [5] concerns the target oxytocin receptor (UniProt P30559). As to conditions: cited from earlier work.
Series [6] deals with monkey brain capillary endothelial cells. Nature of the series: In vitro blood-brain barrier (BBB) model (MBT-24H), transport between luminal and abluminal chambers, control or RAGE shRNA knockdown. Conditions: 1.0 ng/ml in luminal chamber, 3 h, control vs RAGE knockdown, ELISA, n = 4. On the procedure:
EC, monkey brain capillary endothelial cells; Peri, rat brain pericytes; Astro, rat astrocytes. […] The endothelial cells used in the upper chamber in a were treated with RAGE shRNA (knockdown, KD) or control (C or CNT) vectors to assess the effects of RAGE knockdown. […] Values are mean ± SEM
For the in vitro BBB model (MBT-24H, PharmaCo-Cell Co., Nagasaki, Japan), rat brain pericytes (1.5 × 10^4 cells/cm^2) and rat astrocytes (1.5 × 10^4 cells/cm^2) were seeded on the bottom of the collagen-coated polyester membranes of Transwell inserts (Corning Life Sciences, MA, USA). After 16 h the cells firmly adherent, monkey brain vascular endothelial cells (1.5 × 10^5 cells/cm^2) were then seeded on the upper side of the inserts in 24-well culture plates. The in vitro BBB models were established within 4 days of seeding the cells according to the manufacturer’s instructions. Trans-endothelial electrical resistance (TEER), which primarily reflects the flux of sodium ions through the cell layers in the culture conditions, was measured with an epithelial-volt-ohm metre and an Endohm-6 chamber electrodes (World Precision Instruments, Sarasota, FL, USA). The TEERs of the coated, cell-free filters were subtracted from the measured TEER values of the models and shown as Ω cm^2. The apparent permeability constants (Papp) between luminal and abluminal chambers were calculated from the distribution ratios. Endothelial expression was silenced using RAGE shRNA and the pSilencer 3.0-H1 vector (Ambion, Austin, TX, USA)[41]. […]
(ELISA stands for enzyme-linked immunosorbent assay.)

For series [7], the target named is T1, soluble RAGE (Homo sapiens, UniProt Q15109).
T1 construct: from tissue; host or cells: human serum
Nature of the series: Gel permeation, anti-RAGE and esRAGE affinity chromatography of human serum with EIA and LC-MS/MS. In kind it is binding. Conditions: 50 ml human serum. On the procedure: Polypeptides were separated using a Superdex 75 pg HiLoad 26/600 column (GE Healthcare Japan, Tokyo) eluted at 1.0 ml/min with 5 mM ammonium acetate pH 7.8. […] Anti-RAGE monoclonal antibody (1.0 mg) or purified esRAGE (0.5 mg) were coupled to NHS-activated HiTrap (GE Healthcare). Sera samples (50 ml) from healthy consenting adults were applied to the HiTrap-anti-RAGE column equilibrated with 50 mM Tris–HCl (pH 7.4) and 0.15 M NaCl. Alternatively, the low molecular weight (<3000, Amicon Ultracel3K) fraction of human serum (50 ml) was applied to the HiTrap-esRAGE column previously equilibrated with phosphate-buffered saline (PBS). After washing the bound proteins were eluted with 100 mM glycine-HCl buffer (pH 2.5) for HiTrap-anti-RAGE or 10 mM Tris–HCl (pH 7.4) and 2.0 M NaCl for HiTrap-esRAGE and the eluates were analysed by EIA or LC-MS/MS and Western blotting.
as §1
Supplementary Figure 1. […]

A short description of series [8]: Sodium fluorescein leakage into CSF after BCCAO (BBB integrity). In kind it is in vivo, mouse. Conditions: individual animals; for CSF/blood fluorescent: 60 min after injection. On the procedure:
WT and Ager^−/− male mice (8 to 12-weeks-old and weighing 20–30 g) were used for the experiments. The animals were anaesthetised with 2.0% halothane and maintained with 0.5% halothane through a facemask. Brain ischaemia was induced via bilateral occlusion of the common carotid arteries (BCCAO) for 15 min using microvascular clips as described previously. Laser-Doppler flowmetry was used to measure cerebral cortical microperfusion (3 mm lateral to bregma). […] Rectal temperature was maintained at 36.5–37.5 °C by using a heat lamp and a blanket until the mice were completely alert. The control animals underwent a sham-operation that was identical with the exception of the occlusion. To quantify accumulative BBB leakages, 200 µl of sodium fluorescein (Sigma-Aldrich) at a concentration of 6 mg/ml in PBS was injected via the venous sinus of retro-orbital in the mice. […] Sixty minutes later, the CSF and blood were collected according to the protocol for sampling of CSF and blood from mice[80]. The fluorescence of CSF and serum were measured at 460 nm at an excitation wavelength of 355 nm by using a Fluoroscan Ascent FL luminometer (Labsystems. Wilmington, DE, USA). Results are presented as relative fluorescence units (CSF value/serum value) (%).

Several values for one entry are separate records, joined by “and”; a condition that tells them apart may be missing. Equal entries are not always repeated.

Sequence of human esRAGE (Q15109 23-347 isoform Q15109-3 limits assumed): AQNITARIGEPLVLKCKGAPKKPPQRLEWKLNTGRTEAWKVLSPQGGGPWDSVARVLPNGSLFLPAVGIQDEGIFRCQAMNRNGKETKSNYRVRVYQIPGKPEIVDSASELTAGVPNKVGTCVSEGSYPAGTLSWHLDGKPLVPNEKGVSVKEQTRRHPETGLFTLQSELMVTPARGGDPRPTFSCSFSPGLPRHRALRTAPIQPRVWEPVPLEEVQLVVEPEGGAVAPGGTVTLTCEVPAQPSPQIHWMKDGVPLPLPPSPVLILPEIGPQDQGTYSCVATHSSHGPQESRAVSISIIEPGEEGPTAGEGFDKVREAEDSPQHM
Sequence of oxytocin (P01178 whole entry, looked up): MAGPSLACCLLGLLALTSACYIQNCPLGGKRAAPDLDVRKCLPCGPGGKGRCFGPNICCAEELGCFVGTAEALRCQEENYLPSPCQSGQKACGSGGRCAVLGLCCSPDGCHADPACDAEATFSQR
Sequence of Oxytocin (synthetic) (P01178 whole entry, looked up): as above
T1 sequence (Q15109 23-347 isoform Q15109-3): as the sequence (Q15109 23-347 isoform Q15109-3 limits assumed) above
Sequence of oxytocin receptor (P30559 whole entry): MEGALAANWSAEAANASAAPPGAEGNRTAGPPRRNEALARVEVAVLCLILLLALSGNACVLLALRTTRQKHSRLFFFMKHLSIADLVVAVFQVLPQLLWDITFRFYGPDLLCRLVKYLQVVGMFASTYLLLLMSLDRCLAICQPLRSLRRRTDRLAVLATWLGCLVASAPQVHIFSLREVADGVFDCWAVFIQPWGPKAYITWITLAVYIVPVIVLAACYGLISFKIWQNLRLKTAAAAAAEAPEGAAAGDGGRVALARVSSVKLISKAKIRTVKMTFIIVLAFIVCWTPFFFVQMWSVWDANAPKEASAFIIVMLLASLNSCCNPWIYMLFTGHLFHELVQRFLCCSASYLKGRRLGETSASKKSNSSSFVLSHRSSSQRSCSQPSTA
Sequence of oxytocin receptor (high affinity form) (P30559 whole entry): as above

For the compound “AGEs: glyceraldehyde-derived AGE-BSA, RAGE ligand”, the “inhibition of oxytocin binding to soluble RAGE by RAGE ligand” value (from here on “inhibition of oxytocin binding”) in series [1] is listed as “weakly or non-specifically inhibited”.

In the case of [^13C,^15N]oxytocin, the “[13C,15N]oxytocin in CSF of Ager-/- male mice” value in series [2] is reported as “undetectable”.

Regarding “HMGB1: high-mobility group box 1, RAGE ligand (Sigma-Aldrich)”, the “inhibition of oxytocin binding” value in series [1] was “weakly or non-specifically inhibited”.

As to “Oxytocin (synthetic) (from UniProt P01178 20-28) (peptide)”, the Kd in series [3] came to 179 nM.

oxytocin (from UniProt P01178): the results for the Kd in series [4] and in series [5] were 1 nM and 100 nM, respectively.

As for “S100B: RAGE ligand S100B (Sigma-Aldrich)”, in series [1], the “inhibition of oxytocin binding” value is recorded as “weakly or non-specifically inhibited”.

Turning to amyloid β 1-42, the “inhibition of oxytocin binding” value in series [1] was “weakly or non-specifically inhibited”.

With arginine-vasopressin, in series [6], the “transport by RAGE in the in vitro BBB assay system” value was “did not transport”. Further, the “identification in material eluted from immobilised esRAGE (human serum)” value in series [7] is listed as “did not identify”.

With `O=C1OC2(c3ccc(O)cc3Oc3cc(O)ccc32)c2ccccc21` [fluorescein, sodium fluorescein], the CSF/blood fluorescent is 0.0316% and 0.02179% and 0.01832% and 0.02493% in series [8] (Ager-/- BCCAO); 0.03456% and 0.01791% and 0.02565% in series [8] (Ager-/- Sham); 0.02918% and 0.03954% and 0.02602% in series [8] (WT BCCAO). In series [8] (WT Sham, 200 μl of 6 mg/ml via retro-orbital venous sinus, 60 min), the “CSF/blood fluorescent (relative fluorescence units, CSF value/serum value)” value is 0.03234% and 0.009373% and 0.03651% and 0.03497% and 0.03069% and 0.01619%.
